From IntAct's records for PubMed 20974926

B1: Eukaryotic peptide chain release factor GTP-binding subunit (Schizosaccharomyces pombe (strain ATCC 38366 / 972)), O74718 (parent)
chain: MASNQPNNGEQDEQLAKQTSKLSMSAKAPTFTPKAAPFIPSFQRPGFVPVNNIAGGYPYAQYTGQGQNSNSPHPTKSYQQYYQKPTGNTVDEDKSRVPDFSKKKSFVPPKPAIPKGKVLSLGGNTSAPKSTKPISISLGGTKAPTTTKPAAPAAQSKTETPAPKVTSESTKKETAAPPPQETPTKSADAELAKTPSAPAAALKKAAEAAEPATVTEDATDLQNEVDQELLKDMYGKEHVNIVFIGHVDAGKSTLGGNILFLTGMVDKRTMEKIEREAKEAGKESWYLSWALDSTSEEREKGKTVEVGRAYFETEHRRFSLLDAPGHKGYVTNMINGASQADIGVLVISARRGEFEAGFERGGQTREHAVLARTQGINHLVVVINKMDEPSVQWSEERYKECVDKLSMFLRRVAGYNSKTDVKYMPVSAYTGQNVKDRVDSSVCPWYQGPSLLEYLDSMTHLERKVNAPFIMPIASKYKDLGTILEGKIEAGSIKKNSNVLVMPINQTLEVTAIYDEADEEISSSICGDQVRLRVRGDDSDVQTGYVLTSTKNPVHATTRFIAQIAILELPSILTTGYSCVMHIHTAVEEVSFAKLLHKLDKTNRKSKKPPMFATKGMKIIAELETQTPVCMERFEDYQYMGRFTLRDQGTTVAVGKVVKILD
partner: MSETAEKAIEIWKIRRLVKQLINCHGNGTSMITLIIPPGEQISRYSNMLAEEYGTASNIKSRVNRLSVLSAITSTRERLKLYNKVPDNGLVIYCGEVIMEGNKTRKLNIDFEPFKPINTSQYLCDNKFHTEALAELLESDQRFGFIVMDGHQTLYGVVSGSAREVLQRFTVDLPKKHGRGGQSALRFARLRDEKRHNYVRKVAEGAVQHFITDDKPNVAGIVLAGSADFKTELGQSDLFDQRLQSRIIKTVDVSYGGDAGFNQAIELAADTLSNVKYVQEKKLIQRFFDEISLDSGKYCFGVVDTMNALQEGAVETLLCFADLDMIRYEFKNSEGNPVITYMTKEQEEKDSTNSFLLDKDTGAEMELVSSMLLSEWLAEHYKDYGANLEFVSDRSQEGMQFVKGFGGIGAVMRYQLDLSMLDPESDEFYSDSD
B2: Peptide chain release factor subunit 1 (Aeropyrum pernix (strain ATCC 700893 / DSM 11879 / JCM 9820 / NBRC 100138 / K1)), Q9YAF1 (parent)
chain: MSQGRLEERLTISKRELARLLKELKKWSAPATVLLSLYIPPGRPLSDVMTLLRQEYSITDNIKLKRTRQAVKRALSAAMDRLQMLTSTPPNGLVLFCGEDMSTGKFECFMFSPPEPIRVFYYRTDKRFITDFLEDMVEDNNAIGIIIVERDQATIGLLKGARLEVLKELEGFVPGKHKMGGQSQRRYERIIEQMVDEFFKKVGEEASNLLVPLAEKGVLKGVIVAGPGLAKQEFVEGNYLDYRLKKILAPELVDVAYQGLQGLKEAVMKAEKVVEAQMYRDAVNAMEEFKLHLAKGTGMIVYGEKDVEAALEMGAVKTLLIHESREDLEEWVEKAKSSGAQVIVVPESLAEAEWFLKTFGGLAGILRFRISTV
partner: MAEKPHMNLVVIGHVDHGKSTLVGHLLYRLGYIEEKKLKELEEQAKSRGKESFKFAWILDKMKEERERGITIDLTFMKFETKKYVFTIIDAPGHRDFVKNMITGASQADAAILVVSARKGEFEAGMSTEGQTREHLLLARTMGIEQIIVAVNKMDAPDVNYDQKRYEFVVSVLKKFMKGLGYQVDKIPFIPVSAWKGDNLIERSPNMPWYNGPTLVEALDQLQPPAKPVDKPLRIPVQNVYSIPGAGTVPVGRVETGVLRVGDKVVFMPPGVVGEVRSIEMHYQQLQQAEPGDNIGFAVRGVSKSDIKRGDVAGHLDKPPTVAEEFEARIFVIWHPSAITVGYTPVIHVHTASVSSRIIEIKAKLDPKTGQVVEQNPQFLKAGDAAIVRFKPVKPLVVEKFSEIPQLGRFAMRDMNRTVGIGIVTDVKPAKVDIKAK

Variants of: B1
Details: with erf1_schpo sup45, P79063

Row | effect of a mutation on the interaction | Variant
1 | disrupting interaction | Y329A
2 | disrupting interaction | Y477A
3 | decreasing interaction | E297A
4 | decreasing interaction | T294A
5 | decreasing interaction | E305A

Variants of: B2
Details: with ef1a_aerpe tuf

Row | effect of a mutation on the interaction | Variant
6 | disrupting interaction | MSQGRLEERLTISKRELARLLKELKKWSAPATVLLSLYIPPGRPLSDVMTLLRQEYSITDNIKLKRTRQAVKRALSAAMDRLQMLTSTPPNGLVLFCGEDMSTGKFECFMFSPPEPIRVFYYRTDKRFITDFLEDMVEDNNAIGIIIVERDQATIGLLKGARLEVLKELEGFVPGKHKMGGQSQRRYERIIEQMVDEFFKKVGEEASNLLVPLAEKGVLKGVIVAGPGLAKQEFVEGNYLDYRLKKILAPELVDVAYQGLQGLKEAVMKAEKVVEAQMYRDAVNAMEEFALHLAKGTGMIVYGEKDVEAALEMGAVKTLLIHESREDLEEWVEKAKSSGAQVIVVPESLAEAEWFLKTFGGLAGILRFRISTV [K290A]
7 | disrupting interaction | MSQGRLEERLTISKRELARLLKELKKWSAPATVLLSLYIPPGRPLSDVMTLLRQEYSITDNIKLKRTRQAVKRALSAAMDRLQMLTSTPPNGLVLFCGEDMSTGKFECFMFSPPEPIRVFYYRTDKRFITDFLEDMVEDNNAIGIIIVERDQATIGLLKGARLEVLKELEGFVPGKHKMGGQSQRRYERIIEQMVDEFFKKVGEEASNLLVPLAEKGVLKGVIVAGPALAKQEFVEGNYLDYRLKKILAPELVDVAYQGLQGLKEAVMKAEKVVEAQMYRDAVNAMEEFKLHLAKGTGMIVYGEKDVEAALEMGAVKTLLIHESREDLEEWVEKAKSSGAQVIVVPESLAEAEWFLKTFGGLAGILRFRISTV [G228A]
8 | disrupting interaction | MSQGRLEERLTISKRELARLLKELKKWSAPATVLLSLYIPPGRPLSDVMTLLRQEYSITDNIKLKRTRQAVKRALSAAMDRLQMLTSTPPNGLVLFCGEDMSTGKFECFMFSPPEPIRVFYYRTDKRFITDFLEDMVEDNNAIGIIIVERDQATIGLLKGARLEVLKELEGFVPGKHKMGGQSQRRYERIIEQMVDEFFKKVGEEASNLLVPLAEKGVLKGVIVAGPGLAKQEFVEGNYLDYRLKKILAPELVDVAYQGLQGLKEAVMKAEKVVEAQMYRDAVNAMEEFKLHAAKGTGMIVYGEKDVEAALEMGAVKTLLIHESREDLEEWVEKAKSSGAQVIVVPESLAEAEWFLKTFGGLAGILRFRISTV [L293A]
9 | disrupting interaction | MSQGRLEERLTISKRELARLLKELKKWSAPATVLLSLYIPPGRPLSDVMTLLRQEYSITDNIKLKRTRQAVKRALSAAMDRLQMLTSTPPNGLVLFCGEDMSTGKFECFMFSPPEPIRVFYYRTDKRFITDFLEDMVEDNNAIGIIIVERDQATIGLLKGARLEVLKELEGFVPGKHKMGGQSQRRYERIIEQMVDEFFKKVGEEASNLLVPLAEKGVLKGVIVAGPGLAKQEFVEGNYLDYRLKKILAPELVDVAYQGLQGLKEAVMKAEKVVEAQMYRDAVNAMEEFKLHLAKGTGMIVYGEKDVEAALEMGAVKTLLIHESREDLEEWVEKAKSSGAQVIVVPESLAEAEAFLKTFGGLAGILRFRISTV [W354A]
